Assay results published in US20150118212A1.
Residue numbers refer to the chain shown, from its start. Numbers in names are those of the source.

B1: SAK 1CCT (protein)
chain: SSSFDKGKYKKGDDASYFEPTGPYLMVNVTGVDGKGNELLSPHYVEFPIKPGTTLTKEKIEYYVEWALDATAYKEFRVVELDPSAKIEVTYYDKNKKKEETKSFPITEKGFVVPDLSEHIKNPGFNLITKVVIEKKAC
B2: SAK 2CCT (protein)
chain: B1 chain with A137C
B3: SAK 1CNT (protein)
chain: MCSSSFDKGKYKKGDDASYFEPTGPYLMVNVTGVDGKGNELLSPHYVEFPIKPGTTLTKEKIEYYVEWALDATAYKEFRVVELDPSAKIEVTYYDKNKKKEETKSFPITEKGFVVPDLSEHIKNPGFNLITKVVIEKK
B4: SAK 2CNT (protein)
chain: MCCSSSFDKGKYKKGDDASYFEPTGPYLMVNVTGVDGKGNELLSPHYVEFPIKPGTTLTKEKIEYYVEWALDATAYKEFRVVELDPSAKIEVTYYDKNKKKEETKSFPITEKGFVVPDLSEHIKNPGFNLITKVVIEKK
B5: SAK (Recombinant) (protein)
chain: SSSFDKGKYKKGDDASYFEPTGPYLMVNVTGVDGKGNELLSPHYVEFPIKPGTTLTKEKIEYYVEWALDATAYKEFRVVELDPSAKIEVTYYDKNKKKEETKSFPITEKGFVVPDLSEHIKNPGFNLITKVVIEKK
B6: SAK S3C (protein)
chain: B5 chain with S3C

Target: T1, human plasminogen, P00747
T1 chain: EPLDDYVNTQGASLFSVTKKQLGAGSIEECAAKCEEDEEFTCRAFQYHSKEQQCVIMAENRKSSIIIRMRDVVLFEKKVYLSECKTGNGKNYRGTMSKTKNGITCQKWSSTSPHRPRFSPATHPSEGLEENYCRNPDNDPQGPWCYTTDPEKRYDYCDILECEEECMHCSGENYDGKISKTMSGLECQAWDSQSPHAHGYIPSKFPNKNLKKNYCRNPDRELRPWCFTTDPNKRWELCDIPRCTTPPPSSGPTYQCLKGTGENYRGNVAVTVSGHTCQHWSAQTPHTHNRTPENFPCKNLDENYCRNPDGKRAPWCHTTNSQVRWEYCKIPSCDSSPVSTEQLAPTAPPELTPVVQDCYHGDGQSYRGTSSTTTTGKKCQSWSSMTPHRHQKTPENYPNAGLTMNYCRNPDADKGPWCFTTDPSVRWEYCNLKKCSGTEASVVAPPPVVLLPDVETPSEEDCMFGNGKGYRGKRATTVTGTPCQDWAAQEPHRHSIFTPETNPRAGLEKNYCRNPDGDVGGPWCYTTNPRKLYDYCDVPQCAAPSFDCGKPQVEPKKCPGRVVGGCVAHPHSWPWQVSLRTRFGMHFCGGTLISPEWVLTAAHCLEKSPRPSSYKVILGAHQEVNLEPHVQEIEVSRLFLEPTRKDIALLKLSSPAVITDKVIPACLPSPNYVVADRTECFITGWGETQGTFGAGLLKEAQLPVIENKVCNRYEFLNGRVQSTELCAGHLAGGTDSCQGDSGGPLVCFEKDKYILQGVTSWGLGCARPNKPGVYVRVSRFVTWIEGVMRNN

Row | Protein | Specific Activity (U/mg)
1 | B1 | 64 ± 4.5 U/mg
2 | B2 | 65 ± 3.8 U/mg
3 | B3 | 40 ± 4.3 U/mg
4 | B4 | 57 ± 3 8 U/mg
5 | B5 | 66 ± 3.5 U/mg
6 | B6 | 60 ± 4.1 U/mg
